This is an account of results in patent US6555107.

In the test the target is human CXCR4 (human) (UniProt P61073). Nature of the test: cell-based or functional assay.
Sequence of UniProt P61073 (P61073 whole entry): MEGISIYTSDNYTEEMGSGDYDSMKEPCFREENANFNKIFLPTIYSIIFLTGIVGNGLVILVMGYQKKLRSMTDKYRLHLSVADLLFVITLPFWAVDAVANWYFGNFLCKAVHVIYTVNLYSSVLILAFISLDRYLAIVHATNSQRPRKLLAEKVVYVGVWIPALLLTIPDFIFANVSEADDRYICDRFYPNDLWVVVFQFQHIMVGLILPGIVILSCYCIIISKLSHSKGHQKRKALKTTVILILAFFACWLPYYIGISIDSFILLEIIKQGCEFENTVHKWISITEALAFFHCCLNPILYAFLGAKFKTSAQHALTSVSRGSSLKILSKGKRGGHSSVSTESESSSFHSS

Substance “FIV envelope protein (product of the env gene of FIV clone 34TF10, Petaluma strain) (from UniProt P16090 1-856)” showed an infectivity of replication-competent 34TF10 on CRFK.CXCR4 against CRFK cells (focal infectivity assay) of 8 fold and a titer of FIV Env-enveloped CTRZLb vector on CRFK.CXCR4 cells (transducing units/ml) of 360.
